Test results taken from patent US20130022551A1 (TRUSTEES OF BOSTON UNIVERSITY, published 2013).
Blank lines part the entries; values can stand above or below the molecule they belong to.

Experiments:
[1] = target: T1, human dual endothelin-1/VEGF signal peptide receptor (hDEspR) (human) (UniProt B0L3A2); assay: microbubble adherence to HUVECs, isotype control at 800× MB to cell ratio
T1 sequence: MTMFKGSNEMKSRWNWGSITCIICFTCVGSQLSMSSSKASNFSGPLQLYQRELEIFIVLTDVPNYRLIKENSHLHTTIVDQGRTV

rat DEspR (rat) = rat DEspR (rat) (UniProt D3ZGZ6); assay: in vivo contrast-enhanced ultrasound of carotid arteries, pre-/post-destruction difference, isotype control microbubbles in Tg25+ rats
[2] = target: T1, human dual endothelin-1/VEGF signal peptide receptor (hDEspR) (human); assay: cell-based or functional assay
[3] = target: T2, antigenic hDEspR 9-aa peptide, NH2-terminal 9 amino acids of hDEspR (human); assay: indirect ELISA, free hDEspR 9-aa peptide coated on the plate, hybridoma supernatant at 1 ug/ml in two-fold serial dilutions (1 = 1/2 ... 12 = 1/4096), HRP anti-IgG, OD450
T2 construct: Free peptide coated directly on ELISA wells; The KLH conjugate was used only for immunisation; also called DEspR(1-9)
T2 peptide: MTMFKGSNE
Experimental: Monoclonal antibody characterization by ELISA and Western blot analysis. The M₁[…]₉ antigenic peptide was coated directly on wells of a microtiter plate. Appropriate dilutions of primary antibodies were incubated at 37° C. for 1 hr. The wells were then incubated with HRP labeled anti-IgG (SIGMA cat#A0168) at 1:9000 at 37° C. for 1 hr. The reactions were visualized by the addition of 3,3′5,5′-tetramethylbenzidine substrate (incubation at 37° C. for 10 min) and read spectrophotometrically at 450 nm. Western blot analysis was done as described using equal amounts of whole cell protein extract (40 μg) from Cos1 cell transfectants stably expressing hDEspR[17] and corresponding candidate monoclonal antibodies raised against hDEspR specific synthetic peptide. Immunoreactive hDEspR (10 kDa polypeptide) was detected by chemiluminescence using the ECL Western Detection kit (GE Healthcare).

[4] = target: T3, human dual endothelin-1/VEGF signal peptide receptor (hDEspR) (human, UniProt B0L3A2 1-85); assay: cell-based or functional assay
T3 sequence: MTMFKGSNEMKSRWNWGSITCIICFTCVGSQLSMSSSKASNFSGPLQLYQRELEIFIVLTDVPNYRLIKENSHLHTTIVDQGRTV

- % of HUVECs bound [1]: 6.8%
- Contrast intensity signal Δ (rat DEspR (rat)): 1.9
Molecule: control isotype-targeted microbubbles (MBC)

- BRCA1 S1497 phosphorylation, % change from control (antibody microarray, Cos1-hDEspR, 30 min, 10 nM) [2]: 32 % CFC
- CDK1/2 T14/Y15 phosphorylation, % change from control [2]: 53 % CFC
- CDK1/2 Y15 phosphorylation, % change from control [2]: 281 % CFC
- ERK1/2 T202 + Y204; T185 + Y187 phosphorylation, % change from control [2]: 135 % CFC
- FAK S722 phosphorylation, % change from control [2]: 55 % CFC
- FAK S732 phosphorylation, % change from control [2]: 62 % CFC
- FAK panspecific (expression), % change from control [2]: 205 % CFC
- Met panspecific (expression), % change from control [2]: 384 % CFC
- PCNA panspecific (expression), % change from control [2]: -47 % CFC
- PKCa T638/T641 phosphorylation, % change from control [2]: 137 % CFC
- PKCe panspecific (expression), % change from control [2]: 103 % CFC
- Raf1 S259 phosphorylation, % change from control [2]: 12 % CFC
- SHP2 S576 phosphorylation, % change from control [2]: 14 % CFC
- STAT1 S727 phosphorylation, % change from control [2]: 86 % CFC
- STAT1 Y701 phosphorylation, % change from control [2]: 95 % CFC
- STAT3 S727 phosphorylation, % change from control [2]: 133 % CFC
- Shc1 (ShcA) Y349, Y350 phosphorylation, % change from control [2]: 9 % CFC
- Smad 1/5/9 S463 + S465/S465 + S467 phosphorylation, % change from control [2]: 18 % CFC
- Src Y418 phosphorylation, % change from control [2]: -11 % CFC
- Src Y529 phosphorylation, % change from control [2]: -20 % CFC
Molecule: endothelin-1 (ET1) (from UniProt P05305 53-73) (ligand)

- binding result [3]: binds
- EC50, inhibition of MDA-MB-468 tumor cell invasiveness [4]: 3.55 nM
- EC50 for # branching points, inhibition of serum-induced HUVEC tubulogenesis [4]: 3.97 nM
- EC50 for total tube length, inhibition of serum-induced HUVEC tubulogenesis [4]: 4.34 nM
B1: anti-hDEspR 7C5B2 monoclonal antibody (antibody, IgG2b, V domains shown)
VH: QVQLKESGPGLVAPSQSLSITCTVSGFSLTSYDISWIRQPPGKGLEWLGVIWTGGGTNYNSAFMSRLSISKDNSKSQVFLKMNSLQTDDTAIYYCVRDRDYDGWYFDVWGAGTTVTVSS
VL: DVLMTQTPLSLPVSLGDQASISCRSSQSIVHSNGNTYLEWYLQKPGQSPKLLIYKVSNRFSGVPDRFSGSGSGTDFTLKISRVEAEDLGVYYCFQGSHVPYTFGGGTKLEIK
notes: Tested as hybridoma supernatant and as purified antibody; also called 7C5B2 antibody; 7C5B2 anti-DEspR antibody
